This note sets out measurements from article PMC10110401, “HuR modulation counteracts lipopolysaccharide response in murine macrophages”.

The data set addresses HuR M1M2 (rM1M2_HuR) (UniProt Q15717 20-186). The data set is described as follows: HTRF; 20 nM protein, 50 nM probe; hook point titration 0-500 nM protein; TM7nox inhibits with IC50 0.7956 uM (small-molecule value); REMSA: 3.7 nM (or 100 nM) protein, 1 nM probe, 30 min, 4% native PAGE, buffer not given; HTRF: 20 nM protein, 50 nM probe, buffer not given; pull-down: lysis in 20 mM Tris-HCl pH 7.5, 100 mM KCl, 5 mM MgCl2, 0.5% NP-40, probe 0.5 uM in TENT (20 mM Tris-HCl pH 8.0, 2 mM EDTA, 500 mM …). To be noted: protein: recombinant; tags: His-tag; label: biotin; single strand. (Time-resolved FRET reads energy transfer from a long-lived donor to a nearby acceptor.)

HuR M1M2 (rM1M2_HuR), sequence (Q15717 20-186): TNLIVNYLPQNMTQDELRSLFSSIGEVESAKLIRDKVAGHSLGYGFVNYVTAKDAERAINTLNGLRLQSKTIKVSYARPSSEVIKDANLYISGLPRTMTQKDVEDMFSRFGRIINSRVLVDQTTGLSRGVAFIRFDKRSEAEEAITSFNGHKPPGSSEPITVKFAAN

B1: Bi-TNF ARE probe (ssRNA)
RNA: AUUAUUUAUUAUUUAUUUAUUAUUUA
modifications: 5'-biotin
For the molecule B1, the binding result is “binds”.
